Laboratory results from patent publication US20240002331A1 (TIDAL THERAPEUTICS, published 2024).
Blank lines part the entries; values can stand above or below the molecule they belong to.

Tests used:
[1] = target: mouse CD8 on primary murine T-cells (murine) (UniProt P01731); experiment: in vivo, DiI-labelled targeted LNPs injected i.v. in BALB/c mice, flow cytometry of blood 24 hours after injection; untargeted LNPs <2%
[2] = target: mouse CD4 on primary murine T-cells (murine) (UniProt P06332); experiment: in vivo, DiI-labelled targeted LNPs injected i.v. in BALB/c mice, flow cytometry of blood 24 hours after injection; untargeted LNPs ˜2%
Sequence of mouse CD4 on primary murine T-cells (murine) (P06332 27-457): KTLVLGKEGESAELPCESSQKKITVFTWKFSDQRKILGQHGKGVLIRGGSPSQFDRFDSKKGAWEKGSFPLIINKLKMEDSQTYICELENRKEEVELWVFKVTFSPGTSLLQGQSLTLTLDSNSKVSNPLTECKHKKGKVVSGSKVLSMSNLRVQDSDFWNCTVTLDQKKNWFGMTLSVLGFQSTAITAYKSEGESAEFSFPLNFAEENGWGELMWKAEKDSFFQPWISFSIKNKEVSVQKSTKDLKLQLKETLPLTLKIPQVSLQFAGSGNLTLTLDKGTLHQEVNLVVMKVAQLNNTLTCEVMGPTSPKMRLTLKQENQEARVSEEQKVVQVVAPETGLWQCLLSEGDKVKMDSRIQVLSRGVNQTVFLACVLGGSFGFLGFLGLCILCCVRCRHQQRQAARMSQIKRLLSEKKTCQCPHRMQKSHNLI

[3] = target: T1, CD20 on Raji (B-cell) cells (UniProt P11836 1-297, limits assumed); experiment: cell-based or functional assay
T1 sequence (looked up): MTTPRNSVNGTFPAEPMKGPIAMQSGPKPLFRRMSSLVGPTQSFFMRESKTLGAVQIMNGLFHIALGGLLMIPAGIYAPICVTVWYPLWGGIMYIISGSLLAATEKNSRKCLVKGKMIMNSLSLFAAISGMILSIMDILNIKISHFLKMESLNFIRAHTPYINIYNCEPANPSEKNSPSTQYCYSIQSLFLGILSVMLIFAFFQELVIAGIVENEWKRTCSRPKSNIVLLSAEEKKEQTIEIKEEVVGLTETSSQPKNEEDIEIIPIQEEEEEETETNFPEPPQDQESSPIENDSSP

[4] = target: T2, human CD2 on primary human T-cells (human, UniProt P06729 25-351); experiment: DiI-labelled LNP with inserted Fab conjugate on primary human CD3+ T cells, flow cytometry
T2 construct: whole, on cells
T2 sequence (looked up): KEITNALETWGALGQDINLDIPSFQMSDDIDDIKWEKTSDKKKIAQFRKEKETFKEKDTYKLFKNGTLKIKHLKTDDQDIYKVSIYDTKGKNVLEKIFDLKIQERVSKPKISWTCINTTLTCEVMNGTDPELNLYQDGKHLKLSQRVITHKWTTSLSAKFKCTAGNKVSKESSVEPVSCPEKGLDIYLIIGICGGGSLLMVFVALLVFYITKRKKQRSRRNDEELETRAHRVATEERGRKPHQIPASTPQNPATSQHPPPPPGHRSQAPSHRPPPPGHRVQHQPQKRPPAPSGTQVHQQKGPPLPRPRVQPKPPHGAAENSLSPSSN

[5] = target: T3, human CD8 on primary human cells (CD8 T-cells, NK-cells) (human, UniProt P01732 22-235); experiment: DiI-labelled LNP with inserted Fab conjugate, human whole blood, 24 h, flow cytometry (% DiI+ and DiI MFI) on CD4 and CD8 T-cells
T3 construct: whole, on cells; also called CD8 receptor
T3 sequence (P01732 22-235): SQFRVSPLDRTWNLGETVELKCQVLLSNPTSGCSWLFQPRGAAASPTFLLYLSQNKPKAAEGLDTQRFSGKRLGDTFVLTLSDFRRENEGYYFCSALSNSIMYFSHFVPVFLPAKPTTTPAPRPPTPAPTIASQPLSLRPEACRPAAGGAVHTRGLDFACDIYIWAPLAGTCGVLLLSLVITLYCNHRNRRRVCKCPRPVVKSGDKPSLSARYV

[6] = target: T4, human CD7 on primary human T-cells (human, UniProt P09564 26-240); experiment: DiI-labelled LNP with inserted Nb conjugate on primary human CD3+ T cells, flow cytometry
T4 construct: whole, on cells
T4 sequence (looked up): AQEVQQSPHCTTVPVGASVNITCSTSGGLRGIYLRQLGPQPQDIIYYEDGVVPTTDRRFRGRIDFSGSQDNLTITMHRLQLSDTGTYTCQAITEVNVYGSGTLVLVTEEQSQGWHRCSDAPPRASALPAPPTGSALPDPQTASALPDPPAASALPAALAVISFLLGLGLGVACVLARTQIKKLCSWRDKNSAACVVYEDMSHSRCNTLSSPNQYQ

Sequence of mouse CD8 on primary murine T-cells (murine) (P01731 28-247): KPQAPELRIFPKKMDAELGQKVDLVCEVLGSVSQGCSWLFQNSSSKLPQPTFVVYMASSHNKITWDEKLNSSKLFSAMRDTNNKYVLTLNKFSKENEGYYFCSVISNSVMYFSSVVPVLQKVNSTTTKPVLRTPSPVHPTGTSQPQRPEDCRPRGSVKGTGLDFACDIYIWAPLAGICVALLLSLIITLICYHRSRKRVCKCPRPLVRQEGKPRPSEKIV

Molecule: anti-mouse CD8 Fab YTS156.7.7, inserted in LNPs
% of CD3+CD8+ T-cells in the blood with LNP-association (DiI+) [1]: 78%

Molecule: anti-mouse CD4 Fab GK1.5, inserted in LNPs
% of the CD3+CD4+ cell population DiI-positive [2]: 67%

B1: TTR-023 anti-CD20 (Leu-16) CAR (other)
chain: DYKAKEVQLQQSGAELVKPGASVKMSCKASGYTFTSYNMHWVKQTPGQGLEWIGAIYPGNGDTSYNQKFKGKATLTADKSSSTAYMQLSSLTSEDSADYYCARSNYYGSSYWFFDVWGAGTTVTVSSGGGSGGGSGGGGSSDIVLTQSPAILSASPGEKVTMTCRASSSVNYMDWYQKKPGSSPKPWIYATSNLASGVPARFSGSGSGTSYSLTISRVEAEDAATYYCQQWSFNPPTFGGGTKLEIKGGGGSAAAIEVMYPPPYLDNEKSNGTIIHVKGKHLCPSPLFPGPSKPFWVLVVVGGVLACYSLLVTVAFIIFWVRSKRSRLLHSDYMNMTPRRPGPTRKHYQPYAPPRDFAAYRSRVKFSRSAEPPAYQQGQNQLYNELNLGRREEYDVLDKRRGRDPEMGGKPRRKNPQEGLYNELQKDKMAEAYSEIGMKGERRRGKGHDGLYQGLSTATKDTYDALHMQALPPR
% of dead Raji cells in co-culture with CAR-T cells (Lipid 9 or DLin-KC3-DMA LNPs), against mCherry transfected T-cells [3]: 4 fold
% of dead Raji cells in co-culture with CAR-T cells (Lipid 15 or DLin-KC3-DMA LNPs), against mCherry transfected T-cells [3]: 4 fold

B2: anti-CD2 TS2/18.1 Fab NoDS, lipid conjugate (Fab, V domains shown)
VH: EVQLVESGGGLVMPGGSLKLSCAASGFAFSSYDMSWVRQTPEKRLEWVAYISGGGFTYYPDTVKGRFTLSRDNAKNTLYLQMSSLKSEDTAMYYCARQGANWELVYWGQGTLVTVSA
VL: DIVMTQSPATLSVTPGDRVFLSCRASQSISDFLHWYQQKSHESPRLLIKYASQSISGIPSRFSGSGSGSDFTLSINSVEPEDVGVYFCQNGHNFPPTFGGGTKLEIKR
modifications: DSPE-PEG-maleimide coupled to the C-terminal cysteine in the heavy chain (methods of Example 4)
notes: Inserted in LNPs
binding result [4]: binds

Further lines, results first:

binding result [4]: binds
B3: anti-CD2 9.6 Fab NoDS, lipid conjugate (Fab, V domains shown)
VH: QVQLQQPGAELVRPGSSVKLSCKASGYTFTRYWIHWVKQRPIQGLEWIGNIDPSDSETHYNQKFKDKATLTVDKSSGTAYMQLSSLTSEDSAVYYCATEDLYYAMEYWGQGTSVTVSS
VL: NIMMTQSPSSLAVSAGEKVTMTCKSSQSVLYSSNQKNYLAWYQQKPGQSPKLLIYWASTRESGVPDRFTGSGSGTDFTLTISSVQPEDLAVYYCHQYLSSHTFGGGTKLEIKR
modifications: DSPE-PEG-maleimide coupled to the C-terminal cysteine in the heavy chain (methods of Example 4)
notes: Inserted in LNPs

binding result [5]: no binding
B4: mutOKT8-Fab (non-functional mutated OKT8), DSPE-PEG (2k) lipid conjugate (Fab, V domains shown)
VH: QVQLVQSGAEDKKPGASVKVSCKASGFNIKDTYIHWVRQAPGQGLEWMGRIDPANDNTLYASKFQGRVTITADTSSNTAYMELSSLRSEDTAVYYCGRGAGAYVFDHWGQGTTVTVSS
VL: DIVMTQSPSSLSASVGDRVTITCRTSRSISAALAWYQEKPGKAPKLLIYSGSTLQSGVPSRFSGSGSGTDFTLTISSLQPEDFATYYCQQHNENPLTFGQGTKVEIKR
modifications: DSPE-PEG (2k)-maleimide coupled to the C-terminal cysteine in the heavy chain (conjugated using similar methods as hSP34)
notes: Negative control, inserted in mRNA LNPs; also called muOKT8

binding result [6]: binds
B5: Anti-CD7 V1 Nb, lipid conjugate (VHH)
VHH: DVQLQESGGGLVQAGGSLRLSCAVSGYPYSSYCMGWFRQAPGKEREGVAAIDSDGRTRYADSVKGRFTISQDNAKNTLYLQMNRMKPEDTAMYYCAARFGPMGCVDLSTLSFGHWGQGTQVTVSI
modifications: conjugated to DSPE-3.4K PEG-maleimide (the cysteine is not named in the example)
notes: The entry includes the C-terminal spacer, cysteine and His tag; Inserted in LNPs; also called αCD7
